Measurements taken from US20220056137A1 (GIGAGEN, published 2022).
Residue numbers refer to the chain shown, from its start. Where two headings read alike, the source gives them in different places. Each block holds one binder with its values, some of them ahead of it.

Columns and labels:
[1] = target: T1, human PD-L1 protein (soluble) (human, UniProt Q9NZQ7 19-239); assay: SPR, mAb captured on anti-human IgG Fc, PD-L1 as analyte;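 on koff: array SPR with mAb supernatants captured at several densities, PD-L1 injected for 5 min then 15 min dissociation, non-regenerative kinetic series, double-referenced against interspot surface and blank injection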;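 on kon: array SPR with mAb supernatants captured at several densities, PD-L1 injected for 5 min then 15 min dissociation, non-regenerative kinetic series, double-referenced against interspot surface and blank injection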
T1 construct: also called PD-L1 (R&D Systems); His-tagged PD-L1 protein
Method: (§1) The surface was then deactivated with 1 M ethanolamine pH 8.5 (Carterra Inc.). Running buffer used for the lawn immobilization was HBS-EPC (10 mM HEPES, 150 mM NaCl, 3 mM EDTA, 0.05% Tween 20, pH 7.4; Teknova).
(§2) The sensor chip was then transferred to a continuous flow microspotter (CFM; Carterra Inc.) for array capturing. The mAb supernatants were diluted 50-fold (3-10 mg/mL final concentration) into HBS-EPC with 1 mg/mL BSA. The samples were each captured twice with 15-minute and 4-minute capture steps on the first and second prints, respectively, to create multiple densities, using a 65 mL/min flow rate. The running buffer in the CFM was also HBS-EPC.
(§3) Next, the sensor chip was loaded onto an SPR reader (MX-96 system; Ibis Technologies) for the kinetic analysis. […] PD-L1 injections were 5 minutes with a 15-minute dissociation at 8 mL/second in a non-regenerative kinetic series. An injection of the goat anti-Human IgG Fc capture antibody at 75 mg/mL was injected at the end of the series to verify the capture level of each mAb. Binding data was double referenced by subtracting an interspot surface and a blank injection and analyzed for ka (on-rate), kd (off-rate), and KD (affinity) using the Kinetic Interaction Tool software (Carterra Inc.).

cyno PD-L1 = target: T2, cyno PD-L1 (cyno); assay: BLI (Octet), antibody on AHC biosensor, cyno PD-L1 as analyte
T2 construct: Soluble analyte in BLI
Method: For BLI, antibodies were loaded onto an Anti-Human IgG Fc (AHC) biosensor using the Octet Red96 system (ForteBio). Loaded biosensors were dipped into antigen dilutions beginning at 300 nM, with 6 serial dilutions at 1:3. Kinetic analysis was performed using a 1:1 binding model and global fitting.

[2] = target: T1, human PD-L1 protein (soluble); assay: SPR, mAb captured on anti-human IgG Fc, PD-L1 as analyte; remark: listed apart in the source;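 on koff: array SPR with mAb supernatants captured at several densities, PD-L1 injected for 5 min then 15 min dissociation, non-regenerative kinetic series, double-referenced against interspot surface and blank injection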;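 on kon: array SPR with mAb supernatants captured at several densities, PD-L1 injected for 5 min then 15 min dissociation, non-regenerative kinetic series, double-referenced against interspot surface and blank injection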
Method: as §1, §2, §3

[3] = target: PD-L1 expressed on CHO cells (human, UniProt Q9NZQ7 19-290); assay: cell-based or functional assay
rhPD-L1-Fc = target: T3, rhPD-L1-Fc (human, UniProt Q9NZQ7 19-239, limits assumed); assay: competition ELISA: plate-bound rhPD-L1-Fc, antibody titrated, competitor rhCD80-His detected
T3 construct: Recombinant human PD-L1-Fc coated on ELISA plates; not shown: Fc part
T3 sequence (Q9NZQ7 19-239 limits assumed): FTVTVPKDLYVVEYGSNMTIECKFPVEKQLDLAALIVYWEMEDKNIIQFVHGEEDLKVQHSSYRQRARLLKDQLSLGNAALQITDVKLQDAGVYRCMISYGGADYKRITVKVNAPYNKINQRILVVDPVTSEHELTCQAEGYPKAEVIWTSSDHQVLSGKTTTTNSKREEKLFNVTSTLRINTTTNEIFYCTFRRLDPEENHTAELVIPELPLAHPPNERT

Chain of PD-L1 expressed on CHO cells (Q9NZQ7 19-290 limits assumed): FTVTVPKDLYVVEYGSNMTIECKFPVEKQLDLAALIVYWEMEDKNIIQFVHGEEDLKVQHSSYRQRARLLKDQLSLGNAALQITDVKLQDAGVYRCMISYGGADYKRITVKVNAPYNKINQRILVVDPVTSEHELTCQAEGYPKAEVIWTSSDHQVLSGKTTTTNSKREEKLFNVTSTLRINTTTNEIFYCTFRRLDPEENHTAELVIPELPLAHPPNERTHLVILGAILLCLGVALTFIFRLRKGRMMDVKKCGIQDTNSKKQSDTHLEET
T1 sequence (Q9NZQ7 19-239 limits assumed): as the sequence (Q9NZQ7 19-239 limits assumed) above

B1: antibody A2 (antibody, V domains shown)
VH: EVQLVESGGGLVQPGGSLRLSCAASGFTFSRYDMSWVRQAPGKGLEWVSTISGSGGSTYYADSVKGRFTISRDNSKTTLYLQMISLRAEDTAVYYCAKAGFTMIVVAFDYWGQGTLVTVSS
VL: DIQMTQSPSSLSASVGDRVTITCRASQGISNYLAWFQQKPGKAPKSLIYAASSLQSGVPSKFSGSGSGTDFTLTISSLQPEDFATYYCQQYNSYPYTFGQGTKLEIK
notes: Tested as full-length mAb made in CHO cells; also called L2H2
- Kd [1]: 3.45 nM
- koff [1]: 0.0038 s⁻¹
- kon [1]: 1.1e+06 M⁻¹ s⁻¹
- Kd (cyno PD-L1): 5.2 nM
- Kd [2]: 3.5 nM
- Promega assay antagonist (EC50, ug/mL) [3]: 0.042 µg/mL
- EC50 (rhPD-L1-Fc): 0.87 µg/mL

B6: antibody A13 (antibody, V domains shown)
VH: QVQLQESGPGLVKPSETLSLTCTVSGGSISSYYWSWIRQPPGKGLEWIGYIHYSGSTKYNPSLKSRVTISLDTSKNQFSLKLSSVTAADTAVYYCARDRGIGAFDIWGQGTMVTVSS
VL: EIVMTQSPATLSLSPGERATLSCRASQSVSSSYLSWYQQKPGQAPRLLIYGASTRATGIPARFSGSGSGTDFTLTISSLQPEDFAVYYCQQDYNLITFGQGTRLEIK
notes: Tested as full-length mAb made in CHO cells; also called L13H13
- Kd [1]: 126 nM
- koff [1]: 0.039 s⁻¹
- kon [1]: 310000 M⁻¹ s⁻¹
- Kd (cyno PD-L1): 101 nM
- Kd [2]: 124 nM
- Promega assay antagonist (EC50, ug/mL) [3]: 1.12 µg/mL
- EC50 (rhPD-L1-Fc): 0.6 µg/mL

B7: antibody A11 (antibody, V domains shown)
VH: QVQLVESGGGVVQPGRSLRLSCAASGFTFSSYGIHWVRQAPGKGLEWVAVIWSDGSNKFYADSVKGRFTISRDNSKNTLFLQMSSLRAEDTAVYYCARDIAAAIDYWGQGTLVTVSS
VL: AIQMTQSPSSLSASVGDRVTITCRASQGIRNDLGWYQQKPGKAPKLLIYAASSLQSGVPSRFSGSGSGTDFTLTISSLQPEDFATYYCLQDYNYPYTFGQGTKLEIK
notes: Tested as full-length mAb made in CHO cells; also called L11H11
- Kd [1]: 64.7 nM
- koff [1]: 0.011 s⁻¹
- kon [1]: 170000 M⁻¹ s⁻¹
- Kd (cyno PD-L1): 17.7 nM
- Kd [2]: 66 nM
- Promega assay antagonist (EC50, ug/mL) [3]: 0.158 µg/mL
- EC50 (rhPD-L1-Fc): 0.56 µg/mL

B8: antibody A3 (antibody, V domains shown)
VL: B7 VL with G28D, K39Q, Y96P, L104V
V domain: QVQLVESGGGVVQPGRSLRLSCAASGFTFSNYGMHWVRQAPGKGLEWVAVIWFDGNTKYYTDSVKGRFTISRDNSKNTLYLQMNSLRAEDTAVYYCARDTTMVPMDVWGQGTTATVSS
notes: Tested as full-length mAb made in CHO cells; also called L3H3
- Kd [1]: 5.14 nM
- koff [1]: 0.0019 s⁻¹
- kon [1]: 370000 M⁻¹ s⁻¹
- Kd (cyno PD-L1): 8.3 nM
- Kd [2]: 5 nM
- Promega assay antagonist (EC50, ug/mL) [3]: 0.12 µg/mL
- EC50 (rhPD-L1-Fc): 0.99 µg/mL

B9: antibody A17 (antibody, V domains shown)
VH: QVQLQESGPGLVKPSETLSLTCTVSGGSISGYSWSWIRQPPGKGLEWIGYIYYSGSTNNNPSLKSRVTISVDTSKNQFSLKLSSVTAADTAVYFCARDDGIAVAGYYFYYGLDVWGQGTTVTVSS
VL: B7 VL with A1D, L46R, D70E, D91H, Y92N, N93T, Y96W, L104V
notes: Tested as full-length mAb made in CHO cells; also called L17H17
- Kd [1]: 335 nM
- koff [1]: 0.077 s⁻¹
- kon [1]: 230000 M⁻¹ s⁻¹
- Kd (cyno PD-L1): 762 nM
- Kd [2]: 335 nM
- Promega assay antagonist (EC50, ug/mL) [3]: 2.25 µg/mL

B10: antibody A12 (antibody, V domains shown)
VH: QVQLVESGGGVVQPGRSLRLSCAASGFTFSSYGMHWVRQAPGKGLEWVAVIWYDGSNKSYADSVKGRFTFSRDNSKNTLYLQMNSLRAEDTAVYYCARDMDYFGLDVWGQGTTVTVSS
VL: B7 VL with A1D, L46R, D70E, D91H, Y92N, N93S, Y96R, L104V
notes: Tested as full-length mAb made in CHO cells; also called L12H12
- Kd [1]: 81.3 nM
- koff [1]: 0.013 s⁻¹
- kon [1]: 160000 M⁻¹ s⁻¹
- Kd (cyno PD-L1): 75.9 nM
- Kd [2]: 80 nM
- Promega assay antagonist (EC50, ug/mL) [3]: 3.13 µg/mL

B14: antibody A10 (antibody, V domains shown)
VH: QVQLVESGGGVVQPGRSLRLSCAASGFTFSSYGMHWVRQAPGKGLEWVAVIWYDGINKYYADSVKGRFTISRDNSKNTLYLQMNSLRAEDTAVYYCARDSTASPFDYWGQGTLVTVSS
VL: EIVMTQSPATLSLSPGERATLSCRASQSVSSSYLSWYQQKPGQAPRLLIYGASTRATGIPARFSGSGSGTDFTLTISSLQPEDFAVYYCQQDYNLPHTFGQGTKLEIK
notes: Tested as full-length mAb made in CHO cells; also called L10H10
- Kd [1]: 40.9 nM
- koff [1]: 0.018 s⁻¹
- kon [1]: 440000 M⁻¹ s⁻¹
- Kd (cyno PD-L1): 27.4 nM
- Kd [2]: 42 nM
- Promega assay antagonist (EC50, ug/mL) [3]: 0.27 µg/mL
- EC50 (rhPD-L1-Fc): 2.24 µg/mL

B15: antibody A6 (antibody, V domains shown)
VH: B14 VH with Y53F, I56S, S100K, A102V, Y107I, L113M
VL: B6 VL with I96F, Q100P, R103K, L104V, E105D
notes: Tested as full-length mAb made in CHO cells; also called L6H6
- Kd [1]: 15.8 nM
- koff [1]: 0.0049 s⁻¹
- kon [1]: 310000 M⁻¹ s⁻¹
- Kd [2]: 16 nM
- Promega assay antagonist (EC50, ug/mL) [3]: 0.111 µg/mL
- EC50 (rhPD-L1-Fc): 2.62 µg/mL

B16: antibody A1 (antibody, V domains shown)
VH: QVQLVQSGAEVKKPGASVKVSCKASGFTFTSYDINWVRQATGQGLEWMGWMHPNSGITGYAQKFQGRVTMTRNTSISTAYMELSSLSSEDTAVYFCARYYYVSGSYDYWGQGTLVTVSS
VL: B14 VL with R24W, H97Y
notes: Tested as full-length mAb made in CHO cells; also called L1H1
- Kd [1]: 0.13 nM
- koff [1]: 0.00013 s⁻¹
- kon [1]: 1e+06 M⁻¹ s⁻¹
- Kd (cyno PD-L1): 0.31 nM
- Kd [2]: 0.13 nM
- Promega assay antagonist (EC50, ug/mL) [3]: 0.0415 µg/mL
- EC50 (rhPD-L1-Fc): 0.4 µg/mL

B17: antibody A14 (antibody, V domains shown)
VH: B14 VH with I56S, N57V, S100R, A102G, S103V
VL: B14 VL
notes: Tested as full-length mAb made in CHO cells; also called L14H14
- Kd [1]: 146 nM
- koff [1]: 0.038 s⁻¹
- kon [1]: 260000 M⁻¹ s⁻¹
- Kd (cyno PD-L1): 57.7 nM
- Kd [2]: 148 nM
- Promega assay antagonist (EC50, ug/mL) [3]: 1.23 µg/mL
- EC50 (rhPD-L1-Fc): 0.6 µg/mL

B18: antibody A9 (antibody, V domains shown)
VH: B14 VH with Y53F, I56N, S100V, A102T, S103V
VL: B14 VL with I49M, H97Y
notes: Tested as full-length mAb made in CHO cells; also called L9H9
- Kd [1]: 26.2 nM
- koff [1]: 0.0055 s⁻¹
- kon [1]: 210000 M⁻¹ s⁻¹
- Kd (cyno PD-L1): 20.9 nM
- Kd [2]: 26 nM
- Promega assay antagonist (EC50, ug/mL) [3]: 0.28 µg/mL
- EC50 (rhPD-L1-Fc): 1.49 µg/mL

Continued, values first:

- Promega assay antagonist (EC50, ug/mL) [3]: 9.8 µg/mL
B2: antibody A23 (antibody, V domains shown)
VH: QVQLVQSGAEVKKPGASVKVSCKASGYTFTNYGISWVRQAPGQGLEWMGWISAYNGNTNYEQKVQGRVTMTTDTSTSTAYMELRSLRSDDTAVYYCARSLTGLFDYWGQGTLVTVSS
VL: DIQMTQSPSSLSASVGDRVTITCRASQGIRNDLGWYQQKPGKAPKRLIYAASSLQSGVPSRFSGSGSGTEFTLTISSLQPEDFATYYCLQHNSYPMFTFGQGTKLEIK

- Kd [1]: 565 nM
- koff [1]: 0.0035 s⁻¹
- kon [1]: 6200 M⁻¹ s⁻¹
- Kd [2]: 567 nM
B3: antibody A19 (antibody, V domains shown)
VH: QVQLVESGGGVVQPGRSLRLSCVASGFTFSSYGMHWVRQAPGKGLEWVAVIWYDGSNKFYIDSVKGRFTISRDNSKNTLYLQMNSLRAEDTAVYYCARGGAVAGTSWYYYYGMDVWGQGTTVTVSS
VL: DIQLTQSPSFLSASVGDRVTITCRASQGISSYLAWYQQKPGKAPKLLIYDASTLQSGVPSRFSGSGSGTEFTLTISSLQPEDFAIYYCQQLNTYPLTFGGGTKVEIK
notes: Tested as full-length mAb made in CHO cells; also called L19H19

- Kd [1]: 867 nM
- koff [1]: 0.013 s⁻¹
- kon [1]: 15000 M⁻¹ s⁻¹
- Kd [2]: 860 nM
B4: antibody A21 (antibody, V domains shown)
VH: B3 VH with V23A, I61E, A101V, V102N, A103W, G104N, T105D, S106V, W107G
VL: B3 VL with S9P, D50A, I85T, T93S, L96F, G100Q, V104L
notes: Tested as full-length mAb made in CHO cells; also called L21H21

- Kd [1]: 438 nM
- koff [1]: 0.035 s⁻¹
- kon [1]: 80000 M⁻¹ s⁻¹
- Kd [2]: 442 nM
- Promega assay antagonist (EC50, ug/mL) [3]: 0.088 µg/mL
B5: antibody A18 (antibody, V domains shown)
VH: QVQLVESGGGVVQPGRSLRLSCAASGFTFSSFALHWVRQAPGKGLEWVAVLWYDGISKYYADSVKGRFTISRDNSKNTLYLQMNSLRAEDTAVYYCARDVVGVHDAFDIWGQGTMVTVSS
VL: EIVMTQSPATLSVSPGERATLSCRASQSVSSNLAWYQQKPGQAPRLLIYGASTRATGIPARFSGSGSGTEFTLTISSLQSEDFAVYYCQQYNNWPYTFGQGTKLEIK
notes: also called L18H18

- Kd [1]: 227 nM
- koff [1]: 0.022 s⁻¹
- kon [1]: 97000 M⁻¹ s⁻¹
- Kd [2]: 227 nM
- Promega assay antagonist (EC50, ug/mL) [3]: 0.55 µg/mL
B11: antibody A15 (antibody, V domains shown)
VH: QLQLQESGPGLVKPSETLSLTCTVSGGSFNRSNYYWGWIRQPPGKGLEWIGSIYYSGSTYYNPSLKSRLTISADTSKTQFSLKRNSVTAADTAVYYCAREDIVVVPAAQPPHFYFGMDVWGQGTTVTVSS
VL: B7 VL with A1D, L46R, D70E, D91H, Y92D, N93S, Y96L, Q100G, L104V
notes: Tested as full-length mAb made in CHO cells; also called L15H15

- Kd [1]: 250 nM
- koff [1]: 0.035 s⁻¹
- kon [1]: 140000 M⁻¹ s⁻¹
- Kd (cyno PD-L1): 532 nM
- Kd [2]: 246 nM
- EC50 (rhPD-L1-Fc): 0.64 µg/mL
B12: antibody A16 (antibody, V domains shown)
VH: B10 VH with S59Y, F70I, K76N, N77D, Y80F, M100F, Y102W, L105M
VL: B7 VL with A1D, L46R, D70E, D91H, Y92N, N93S, Y96R, L104V
notes: Tested as full-length mAb made in CHO cells; also called L16H16

- Kd [1]: 688 nM
- koff [1]: 0.11 s⁻¹
- kon [1]: 160000 M⁻¹ s⁻¹
- Kd [2]: 675 nM
B13: antibody A20 (antibody, V domains shown)
VH: B9 VH with G31S, S33Y, N59Y, F94Y, G100R, A104G, G105P, F108Y, L112M
VL: B7 VL with A1D, L46R, D70E, D91H, Y92N, N93S
notes: Tested as full-length mAb made in CHO cells; also called L20H20
